Measurements from patent WO2021032966A1.

Molecular target: Ab42 oligomers (formed during the in vitro aggregation reaction of Ab42)
Assay: time-course indirect ELISA on samples of the Ab42 aggregation reaction

Ab42 oligomers (formed during the in vitro aggregation reaction of Ab42), sequence (peptide, as listed by the source): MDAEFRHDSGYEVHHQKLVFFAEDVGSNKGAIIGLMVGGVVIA

B1: DesAb-O (VHH)
VHH: EVQLVESGGGLVQPGGSLRLSCAASGFNIKDTYIGWVRRAPGKGEEWVASIYPTNGYTRYADSVKGRFTISADTSKNTAYLQMNSLRAEDTAVYYCAAGSESAFGRAEEEAAAWGQGTLVTVSS
Question: How did the fold of ELISA absorbance at 1 hour of incubation over the initial time of aggregation turn out when B1 was run?
Answer: 3 fold
